The subject of the series is O=NO. The series can be described thus: purified protein. The note with it: 50 mM potassium phosphate pH 7.0, 4 °C, anaerobic, nitrite up to 50 mM.

As usually defined, the Km is the substrate concentration at which the rate is half of its maximum. The kcat is the number of substrate molecules converted per active site and unit of time at saturation. A word on the kcat/Km: it is the turnover number divided by the Michaelis constant. “AxNiR (AxCuNiR) (Achromobacter xylosoxidans; F330C)”: the Km turned out to be 1.2 ± 0.1 mM, the kcat amounted to 310 s⁻¹ and the kcat/Km is 260000 M⁻¹ s⁻¹.

Values taken from PMC4104443.
